Source: patent US20170128520A1 (E AND B TECHNOLOGIES, published 2017)

T1: endothelial nitric oxide synthase (eNOS) of cultured bovine aorta endothelial cells (BAEC) (bovine, UniProt P29473 2-1205)
T1 sequence (looked up): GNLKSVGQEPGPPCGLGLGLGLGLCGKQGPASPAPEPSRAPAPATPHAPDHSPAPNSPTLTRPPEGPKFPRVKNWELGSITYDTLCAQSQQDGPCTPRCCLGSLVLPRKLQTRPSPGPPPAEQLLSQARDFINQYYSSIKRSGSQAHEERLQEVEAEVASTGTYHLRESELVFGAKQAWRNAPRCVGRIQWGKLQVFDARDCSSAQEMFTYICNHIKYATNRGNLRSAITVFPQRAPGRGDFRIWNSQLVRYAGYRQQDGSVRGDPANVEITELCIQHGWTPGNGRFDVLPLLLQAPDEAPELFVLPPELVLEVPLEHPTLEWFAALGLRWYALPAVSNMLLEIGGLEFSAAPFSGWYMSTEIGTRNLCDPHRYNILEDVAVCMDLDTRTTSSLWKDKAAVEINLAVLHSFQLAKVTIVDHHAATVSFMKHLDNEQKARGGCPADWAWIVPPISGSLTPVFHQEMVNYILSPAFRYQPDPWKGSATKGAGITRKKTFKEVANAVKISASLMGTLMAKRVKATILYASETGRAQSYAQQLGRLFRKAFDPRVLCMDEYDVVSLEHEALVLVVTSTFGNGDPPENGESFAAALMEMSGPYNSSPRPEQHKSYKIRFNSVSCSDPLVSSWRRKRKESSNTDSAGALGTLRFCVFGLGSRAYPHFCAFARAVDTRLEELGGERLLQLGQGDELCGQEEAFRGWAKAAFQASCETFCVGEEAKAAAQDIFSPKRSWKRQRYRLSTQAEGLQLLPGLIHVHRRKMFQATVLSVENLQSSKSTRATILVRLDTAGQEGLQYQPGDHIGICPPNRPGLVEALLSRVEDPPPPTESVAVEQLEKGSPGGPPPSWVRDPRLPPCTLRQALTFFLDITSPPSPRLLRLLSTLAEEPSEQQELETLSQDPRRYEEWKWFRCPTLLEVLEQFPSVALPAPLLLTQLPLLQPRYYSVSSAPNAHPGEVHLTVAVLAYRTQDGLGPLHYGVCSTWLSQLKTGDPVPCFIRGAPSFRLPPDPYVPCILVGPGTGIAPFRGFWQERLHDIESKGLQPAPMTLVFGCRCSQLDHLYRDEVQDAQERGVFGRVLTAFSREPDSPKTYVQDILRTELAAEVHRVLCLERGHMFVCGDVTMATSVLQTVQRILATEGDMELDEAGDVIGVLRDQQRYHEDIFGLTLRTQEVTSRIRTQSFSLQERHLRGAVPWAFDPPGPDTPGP


Biological target: T1, endothelial nitric oxide synthase …
Experiment: cell-based or functional assay

EC50 of inhibition of VEGF-induced NO release by BAEC (dose response, non-linear regression) [µM]	Binder
1.8	RQIKIWFQNRRMKWKKDGIWKASFTTFTVTKYWFYR [AP-Cav (SEQ ID NO. 2/SEQ ID NO. 5)]
7.5	RRPPRDGIWKASFTTFTVTKYWFYR [Endo5-Cav (SEQ ID NO. 1/SEQ ID NO. 5)]
